B1: MY04: yeast class V myosin heavy chain, GST-HisX6 fusion (protein, UniProt P32492 1-1471, looked up)
Myosin-4: MSFEVGTKCWYPHKEQGWIGGEVTKNDFFEGTFHLELKLEDGETVSIETNSFENDDDHPTLPVLRNPPILESTDDLTTLSYLNEPAVLHAIKKRYMNGQIYTYSGIVLIAANPFDKVDHLYSREMIQNYSSKRKDELEPHLFAIAEEAYRFMVHEKANQTVVVSGESGAGKTVSAKYIMRYFASVQESNNREGEVEMSQIESQILATNPIMEAFGNAKTTRNDNSSRFGKYLQILFDENTTIRGSKIRTYLLEKSRLVYQPETERNYHIFYQILEGLPEPVKQELHLSSPKDYHYTNQGGQPNIAGIDEAREYKITTDALSLVGINHETQLGIFKILAGLLHIGNIEMKMTRNDASLSSEEQNLQIACELLGIDPFNFAKWIVKKQIVTRSEKIVTNLNYNQALIARDSVAKFIYSTLFDWLVDNINKTLYDPELDQQDHVFSFIGILDIYGFEHFEKNSFEQFCINYANEKLQQEFNQHVFKLEQEEYVKEEIEWSFIEFSDNQPCIDLIENKLGILSLLDEESRLPSGSDESWASKLYSAFNKPPSNEVFSKPRFGQTKFIVSHYAVDVEYEVEGFIEKNRDSVSLGHLDVFKATTNPIFKQILDNRELRSDDAPEEQNTEKKIMIPARLSQKKPTLGSMFKKSLGELMAIINSTNVHYIRCIKPNSEKKPWEFDNLMVLSQLRACGVLETIRISCAGFPSRWTFDEFVQRYFLLTDYSLWSGILYNPDLPKEAIVNFCQSILDATISDSAKYQIGNTKIFFKAGMLAFLEKLRTNKMNEICIIIQKKIRARYYRLQYLQTMESIKKCQSQIRSLLVRTRVDHELKTRAAILLQTNIRALWKREYYRAAIGQIIKLQCTCKRKLILDSVNRKFMLMAAVIIQSYIRSYGHKTDYRTLKRSSILVQSAMRMQLARRRYIVLQKEVEERNIRASYGIGLLEEAIEFKNSFILNLEMLNDSYTRLTQLLQGDLSNIPSKQRQEYETIVNGYNDKISKLKTLQVEIMNTLNKKNALKERKKKQSSLIQSHMQSLAAIKGNKPSRLSDEVKSMKQELAFIENVIAQDFTTTYSANKNDKVKGLGIAGQQVKPKLVNVIRRESGNPDLLELLMDLNCYTLEVTEGYLKKVNVTEVNGDNVLGPIHVITTVVSSLVRNGLLIQSSKFISKVLLTVESIVMSLPKDETMLGGIFWLSNLSRLPAFAANQKTLYEANGGDEKDKLTLIYLNDLENETLKVFDKIYSTWLVKFMKHASAHIEIFDMVLNEKLFKNSGDEKFAKLFTFLNEFDAVLCKFQVVDSMHTKIFNDTLKYLNVMLFNDLITKCPALNWKYGYEVDRNIERLVSWFEPRIEDVRPNLIQIIQAVKILQLKISNLNEFKLLFDFWYALNPAQIQAILLKYKPANKGEAGVPNEILNYLANVIKRENLSLPGKMEIMLSAQFDSAKNHLRYDTSAITQNSNTEGLATVSKIIKLDRK
modifications: GST-HisX6 tag
notes: yeast class V myosin heavy chain, GST-HisX6 fusion
B2: CMK1: yeast calcium/calmodulin-dependent serine/threonine protein kinase, GST-HisX6 fusion (protein)
chain: MDDKVSEKESSPKQTEEDSEGKMAHVQPASYVNKKKYVFGKTLGAGTFGVVRQAKNTETGEDVAVKILIKKALKGNKVQLEALYDELDILQRLHHPNIVAFKDWFESKDKFYIITQLAKGGELFDRILKKGKFTEEDAVRILVEILSAVKYMHSQNIVHRDLKPENLLYIDKSDESPLVVADFGIAKRLKSDEELLYKPAGSLGYVAPEVLTQDGHGKPCDIWSIGVITYTLLCGYSAFRAERVQDFLDECTTGEYPVKFHRPYWDSVSNKAKQFILKALNLDPSKRPTAAELLEDPWIICTELKTHNLLPGLKEGLDARQKFRNSVERVRLNMKIQKLRDLYLEQTESDSDFDEGSQANGSVPPLKATDTSQLSKKLSEEEQSKLKSELTSKAFAQLVNTVLAEKEKFLNINRVCSSDSDLPGSDIKSLDEAKEKPEGKDTKTEE
modifications: left off: a dimerising Fc or GST
notes: yeast calcium/calmodulin-dependent serine/threonine protein kinase, GST-HisX6 fusion

Experiments:
PI(3,4)P2 liposomes = assay: Yeast proteome chip probed with PI(3,4)P2 liposomes; details: liposome binding signal on yeast proteome chip, Cy3-streptavidin detection
PI(4,5)P2 liposomes = assay: Yeast proteome chip probed with PI(4,5)P2 liposomes; details: liposome binding signal on yeast proteome chip, Cy3-streptavidin detection
PI(4)P liposomes = assay: Yeast proteome chip probed with PI(4)P liposomes; details: liposome binding signal on yeast proteome chip, Cy3-streptavidin detection
[1] = test system: phospholipids (phosphatidylinositols vs phosphatidylcholine); assay: Proteome chip lipid-binding screen, overall analysis of six liposomes (PI/PC specificity); details: compared with phosphatidylcholine
Summary of the method: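 Yeast proteome chips probed with PC liposomes carrying 1% biotin DHPE, plus 5% PI(3)P, PI(4)P, PI(3,4)P2, PI(4,5)P2 or PI(3,4,5)P3, 1 h at RT. Binding detected with Cy3/Cy5-streptavidin; PI signals normalized to PC signals, giving PI/PC ratios (>1.3 taken as PI-preferential).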

[2] = test system: phosphatidylcholine (PC) liposomes; assay: Yeast proteome chip probed with PC liposomes; details: liposome binding signal on yeast proteome chip, Cy3-streptavidin detection
Summary of the method: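 Sonicated liposomes in TBS, of phosphatidylcholine with 1% (w/w) biotin-DHPE plus 5% (w/w) of the named phosphoinositide (PC-only liposomes lacking it), were incubated on blocked chips of GST-RGS-His6-tagged yeast ORF proteins for 1 h at RT. Bound liposomes were detected with Cy3- or Cy5-streptavidin after PBS washes.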

PI(3)P liposomes = assay: Yeast proteome chip probed with PI(3)P liposomes; details: liposome binding signal on yeast proteome chip, Cy3-streptavidin detection

Molecule	PI(3, 4)P2 (PI(3,4)P2 liposomes)	PI(4, 5)P2 (PI(4,5)P2 liposomes)	PI(4)P (PI(4)P liposomes)	preferential binding of particular phosphatidylinositol lipids [1]	PC [2]	PI(3)P (PI(3)P liposomes)
B1	171.73	4.79	36.58	preferentially binds PI(4,5)P2	103.89	2.00
B2	1786.71	545.23	105.39		1073.54	7.00

— patent US20050182242A1, “Global analysis of protein activities using proteome chips” (priority 2001, published 2005)
